Laboratory results as given in patent publication US20150150950.

Assays:
[1] = test system: inactive wildtype GST-GSK3β (K^84A kinase inactivating mutation)
[2] = test system: GST-GSK3α (Cell Signaling, boiled to inactivate)
[3] = test system: GST-GSK3β T^43A mutant (kinase inactive, K^84A)
[4] = test system: GST-GSK3β T^390A mutant (kinase inactive, K^84A)
[5] = test system: Recombinant kinase-active GSK3α
[6] = test system: purified active wildtype GST-GSK3β
[7] = test system: active GST-GSK3β-T^43A mutant
[8] = test system: GST-GSK3β T^390A/T^43A double mutant (kinase inactive, K^84A)
[9] = test system: active GST-GSK3β-T^390A mutant

Chain of purified recombinant active p38 MAPK (Cell Signaling) (Q16539 2-360): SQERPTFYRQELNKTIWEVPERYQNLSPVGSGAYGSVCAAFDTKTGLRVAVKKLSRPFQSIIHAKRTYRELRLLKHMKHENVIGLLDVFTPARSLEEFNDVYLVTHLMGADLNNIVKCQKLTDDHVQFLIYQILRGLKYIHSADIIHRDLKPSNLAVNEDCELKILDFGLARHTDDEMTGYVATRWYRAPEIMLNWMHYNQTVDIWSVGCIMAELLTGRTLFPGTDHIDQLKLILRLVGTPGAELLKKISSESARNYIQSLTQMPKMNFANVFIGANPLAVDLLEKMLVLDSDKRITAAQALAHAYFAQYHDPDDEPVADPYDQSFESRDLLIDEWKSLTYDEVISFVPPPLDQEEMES
Chain of p38 MAPK in 293T cells (Q16539 2-360): as above
Chain of Recombinant kinase-active GSK3α (P49840 2-483): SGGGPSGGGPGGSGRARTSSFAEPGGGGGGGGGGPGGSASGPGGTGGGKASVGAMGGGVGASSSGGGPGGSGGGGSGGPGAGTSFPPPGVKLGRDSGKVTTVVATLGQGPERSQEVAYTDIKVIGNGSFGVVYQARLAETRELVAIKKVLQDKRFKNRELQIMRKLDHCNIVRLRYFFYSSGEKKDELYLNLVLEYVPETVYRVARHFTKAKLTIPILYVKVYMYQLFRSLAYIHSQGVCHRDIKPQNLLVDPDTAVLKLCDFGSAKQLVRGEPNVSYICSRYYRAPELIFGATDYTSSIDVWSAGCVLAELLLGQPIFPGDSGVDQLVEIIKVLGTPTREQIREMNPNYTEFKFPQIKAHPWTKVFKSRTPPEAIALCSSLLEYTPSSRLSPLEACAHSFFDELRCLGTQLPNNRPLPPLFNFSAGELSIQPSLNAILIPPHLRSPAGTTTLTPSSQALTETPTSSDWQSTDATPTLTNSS

p38 MAPK in 293T cells was tested, and the “in vitro p38 MAP kinase assay (^32P incorporation into GSK3β)” value [1] was “p38 MAPK immunoprecipitated from MKK6 thymocytes or MKK6-transfected 293T cells phosphorylated recombinant catalytically-inactive GSK3β in vitro and this phosphorylation was blocked by the p38 MAPK inhibitor”.

With “purified recombinant active p38 MAPK (Cell Signaling)” the “in vitro kinase assay (^32P incorporation into GSK3α)” value [2] was “GSK3α was not phosphorylated by recombinant p38 MAPK in vitro”, the “in vitro kinase assay (^32P incorporation)” value [3] was “p38 MAPK was still able to partially phosphorylate a GSK3β-T^43A mutant” and the “in vitro kinase assay (^32P incorporation into GSK3β)” value [1] was “A purified recombinant activated p38 MAPK also phosphorylated GSK3β in vitro and this phosphorylation was blocked by SB203580”. The “in vitro kinase assay (^32P incorporation)” value [4] was “Phosphorylation of the GSK3β-T^390A mutant by p38 MAPK was partially reduced but not abrogated”, the “GSK3α activity (in vitro kinase assay, GSM substrate peptide) after preincubation with p38 MAPK” value [5] was “p38 MAPK did not affect the activity of GSK3α” and the “GSK3β activity (in vitro kinase assay, GSM substrate peptide) after preincubation with p38 MAPK” value [6] was “p38 MAPK inhibited both wild-type GSK3β and GSK3β-T^43A mutant”. The “GSK3β activity (in vitro kinase assay, GSM substrate peptide) after preincubation with p38 MAPK” value [7] was “p38 MAPK inhibited both wild-type GSK3β and GSK3β-T^43A mutant” and the “in vitro kinase assay (^32P incorporation)” value [8] was “phosphorylation of the GSK3β-T^43A/T^390A mutant was abrogated”.

recombinant active ERK (Cell Signaling) was tested, and the “in vitro kinase assay (^32P incorporation)” value [3] was “The T^43A mutation but not the T^390A mutation abrogated phosphorylation of GSK3β by ERK” and the “in vitro kinase assay (^32P incorporation)” value [4] was “The T^43A mutation but not the T^390A mutation abrogated phosphorylation of GSK3β by ERK”.

With recombinant active Akt (Cell Signaling) the “GSK3β activity (in vitro kinase assay, GSM substrate peptide) after preincubation with Akt” value (from here on “GSK3β activity … with Akt”) [6] was “Akt inhibited wild-type GSK3β and the two mutants”, the “GSK3β activity … with Akt” value [7] was “Akt inhibited wild-type GSK3β and the two mutants” and the “GSK3β activity … with Akt” value [9] was “Akt inhibited wild-type GSK3β and the two mutants”.
